From patent KR20240094169A (dated 2024) come the findings set out here.

The labels stand for the following.
T1: BCMA (B-cell maturation antigen) expressed on multiple myeloma H929 cells (UniProt Q02223 1-184, limits assumed)
T1 construct: whole, on cells; also called TNFRSF17; CD269
T1 sequence (looked up): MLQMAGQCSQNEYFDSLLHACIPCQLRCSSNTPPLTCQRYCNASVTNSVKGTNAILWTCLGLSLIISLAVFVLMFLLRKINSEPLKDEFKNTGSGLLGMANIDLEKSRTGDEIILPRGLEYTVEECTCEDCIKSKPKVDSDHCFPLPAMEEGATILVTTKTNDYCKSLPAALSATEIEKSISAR

B1: 항-BCMA sdAb No.7 (VHH)
VHH: KLEESGGGSVQTGGSLRLTCAASGSIFSSGFMAWFRQAPGKEREFVSGISWRGDSTGYADSVKGRFTISRDNAKNTVDLQMNSLKPEDTAIYYCAARGTDTAYWGQGTQVTVSS
notes: Camel-derived single-domain antibody from a phage library; also called anti-BCMA sdAb No.7; 항-BCMA No.7
B2: 항-BCMA sdAb No.11 (VHH)
VHH: KLEESGGGSVQTGGSLRLTCAASGSISRLDNMGWFRQAPGKERELVAAINSKSNKTNYADSVKGRFTISRDNAKNTVDLQMNSLKPEDTAIYYCANWSFDKHRAYWGQGTQVTVSS
notes: Camel-derived single-domain antibody from a phage library; also called anti-BCMA sdAb No.11; 항-BCMA No.11
B3: 항-BCMA sdAb No.19 (VHH)
VHH: KLEESGGGSVQTGGSLRLTCAASGIIFSDDAIGWFRQAPGKERELVSLIDSKSSTYYADSVKGRFTISRDNAKNTVDLQMNSLKPEDTAIYYCNDHKRRQAMEYWGQGTQVTVSS
notes: Camel-derived single-domain antibody from a phage library; also called anti-BCMA sdAb No.19; 항-BCMA No.19

For the experiment, the target named is T1, BCMA (B-cell maturation antigen) …. Briefly: flow cytometry on H929 cells, 1 ㎍ sdAb, PE-conjugated secondary antibody.
With B1, the binding result is “binds”.
B2: the binding result was “binds”.
Under B3 stands “binds”.
